Molecular target: IGF-I receptor (IGF-IR) on P6 cells, which overexpress IGF-IR (UniProt P08069)
Test: cell-based or functional assay

UniProt P08069, sequence (P08069 31-1367 limits assumed): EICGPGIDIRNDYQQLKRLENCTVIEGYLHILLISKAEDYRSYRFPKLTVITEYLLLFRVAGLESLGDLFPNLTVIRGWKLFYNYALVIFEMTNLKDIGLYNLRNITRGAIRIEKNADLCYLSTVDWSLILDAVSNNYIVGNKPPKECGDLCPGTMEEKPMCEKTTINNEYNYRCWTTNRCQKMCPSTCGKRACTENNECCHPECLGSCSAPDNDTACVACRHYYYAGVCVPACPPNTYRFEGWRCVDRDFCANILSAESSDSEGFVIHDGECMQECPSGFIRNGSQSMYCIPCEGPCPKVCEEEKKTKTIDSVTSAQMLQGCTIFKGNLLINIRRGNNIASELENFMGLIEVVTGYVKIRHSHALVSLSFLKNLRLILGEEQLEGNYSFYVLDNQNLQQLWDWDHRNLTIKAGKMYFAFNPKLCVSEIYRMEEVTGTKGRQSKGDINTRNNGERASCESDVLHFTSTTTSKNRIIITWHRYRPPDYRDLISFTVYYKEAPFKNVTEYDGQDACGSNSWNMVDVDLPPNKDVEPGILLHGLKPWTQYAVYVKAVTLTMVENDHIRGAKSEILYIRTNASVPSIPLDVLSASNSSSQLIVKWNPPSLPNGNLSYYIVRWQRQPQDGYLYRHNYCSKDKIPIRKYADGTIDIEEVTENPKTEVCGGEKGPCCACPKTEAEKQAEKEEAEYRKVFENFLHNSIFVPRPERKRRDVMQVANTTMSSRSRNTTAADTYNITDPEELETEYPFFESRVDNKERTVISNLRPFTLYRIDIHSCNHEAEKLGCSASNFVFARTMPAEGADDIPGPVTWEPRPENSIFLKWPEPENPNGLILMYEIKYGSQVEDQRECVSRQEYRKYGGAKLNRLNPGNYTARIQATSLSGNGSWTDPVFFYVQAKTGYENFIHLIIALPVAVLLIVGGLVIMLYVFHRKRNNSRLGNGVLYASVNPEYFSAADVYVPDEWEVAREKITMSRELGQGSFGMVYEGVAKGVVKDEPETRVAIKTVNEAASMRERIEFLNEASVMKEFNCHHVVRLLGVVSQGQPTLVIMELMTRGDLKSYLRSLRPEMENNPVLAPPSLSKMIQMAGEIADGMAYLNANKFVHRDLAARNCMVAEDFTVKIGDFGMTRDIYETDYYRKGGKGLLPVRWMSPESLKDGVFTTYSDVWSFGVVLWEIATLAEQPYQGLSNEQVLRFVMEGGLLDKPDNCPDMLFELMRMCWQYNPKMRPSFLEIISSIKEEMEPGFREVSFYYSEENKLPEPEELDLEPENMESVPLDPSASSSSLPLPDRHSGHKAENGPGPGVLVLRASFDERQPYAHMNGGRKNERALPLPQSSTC

“IGF-IA (murine class I IGF-IA, wild-type construct) (from UniProt P05017 49-153) (ligand)” was tested, and the IGF-IR phosphorylation per IGF molecule against mature IGF-I (KIRA, 4 experiments) was 30 % less, the KIRA (rel to IStop) was 0.59 and the KIRA Raw (IGF-IR phosphorylation, KIRA assay on P6 cells, conditioned medium) was 45.8. The KIRA/Total IGF was 28.2.
“IGF-IKRR (IGF-IA with K68G, R71A, R77A, cleavage blocked) (from UniProt P05017 49-153) (ligand)” gave an IGF-IR phosphorylation per IGF molecule against mature IGF-I (KIRA, 4 experiments) of 30 % less, a KIRA (rel to IStop) of 0.61 and a KIRA Raw (IGF-IR phosphorylation, KIRA assay on P6 cells, conditioned medium) of 23.6. The KIRA/Total IGF was 29.3.
In the case of “IGF-IKRRNN (IGF-IA with K68G, R71A, R77A, N92D, N100D; produces only pro-IGF-I) (from UniProt P05017 49-153) (ligand)”, the IGF-IR response in Kinase Receptor Activation (KIRA) assays, against mature IGF-I is reported as 30 % more, the KIRA (rel to IStop) is reported as 0.93 and the KIRA Raw (IGF-IR phosphorylation, KIRA assay on P6 cells, conditioned medium) is reported as 42.6. For the same substance, the KIRA/Total IGF was 44.4.
“IGF-INN (IGF-IA with N92D and N100D, glycosylation blocked) (from UniProt P05017 49-153) (ligand)” was tested, and the KIRA (rel to IStop) was 0.88, the KIRA Raw (IGF-IR phosphorylation, KIRA assay on P6 cells, conditioned medium) was 65.8 and the KIRA/Total IGF was 42.4.
For “gly-pro-IGF-I (glycosylated pro-IGF-IA) (from UniProt P05017 1-153) (ligand)”, the calculated IGF-IR activation (KIRA, FIG. 5B), potency against mature IGF-I (fold less potent) was 2, the calculated relative IGF-IR activation by gly-pro-IGF-I (GP), mature IGF-I set to 1.0, from the IA equation was 0.3 and the calculated relative IGF-IR activation by gly-pro-IGF-I (GP), mature IGF-I set to 1.0, from the KRR equation was 0.47. The calculated relative IGF-IR activation by gly-pro-IGF-I (GP), mature IGF-I set to 1.0, mean of the IA and KRR equations was 0.38.
For “mature IGF-I (murine), produced from the IGF-ISt construct (from UniProt P05017 49-118) (ligand)”, the KIRA (rel to IStop) was 1, the KIRA Raw (IGF-IR phosphorylation, KIRA assay on P6 cells, conditioned medium) was 39 and the KIRA/Total IGF was 47.9.
“pro-IGF-I (non-glycosylated pro-IGF-IA: mature IGF-I plus EA-peptide) (from UniProt P05017 1-153) (ligand)” gave a calculated relative IGF-IR activation by pro-IGF-I (P), mature IGF-I set to 1.0, from the NN equation of 0.84 and a calculated relative IGF-IR activation by pro-IGF-I (P), mature IGF-I set to 1.0, mean of the NN and KRRNN equations of 0.89.
